Reference: patent publication US20180280520A1 (NAVIGEN, published 2018)
Where “and” joins values, the source holds several entries; their conditions need not be identical. Identical values can stand only once. Positions of bridges follow the written chain, without caps; N, C: chain ends. Non-standard residues stand in square brackets, D forms with d. Primed or numbered codes have the meaning given here. No end group written: not given here. PEG4′ = not defined here; PEG6′ = not defined here; PEG8′ = not defined here

How the values were obtained:
[1] = biological target: RSV F protein (RSV-A) (respiratory syncytial virus, RSV-A) (UniProt P03420); test: cell-based or functional assay
RSV F protein (RSV-A) = RSV F protein (RSV-A) (respiratory syncytial virus, RSV-A, UniProt P03420 26-574); test: cell-based or functional assay
[2] = biological target: T1, BPEG2-GKG-RSVB-IZN45 Full Mut (respiratory syncytial virus, RSV-B, N-terminal biotinPEG2; C-terminal amide); test: phage ELISA of clonal phage, percent bound
T1 construct: also called IZN45_Mut; mutant target
T1 chain: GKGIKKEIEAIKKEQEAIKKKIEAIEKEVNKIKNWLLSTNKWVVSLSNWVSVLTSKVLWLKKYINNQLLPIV

IZN45_WT_Bot = biological target: T2, IZN45_WT_Bot (N-terminal biotinPEG2; C-terminal amide); test: phage ELISA of clonal phage, percent bound
T2 construct: also called BPEG2-GKG-RSVB-IZN45 wt bot
T2 N-trimer mimic monomer (IZ fused to N45, partial groove mutant): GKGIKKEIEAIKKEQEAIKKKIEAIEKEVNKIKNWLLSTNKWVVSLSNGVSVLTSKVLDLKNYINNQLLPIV

BPEG2-GKG-RSVB-IZN45 = biological target: T3, BPEG2-GKG-RSVB-IZN45 (respiratory syncytial virus, RSV-B, N-terminal biotinPEG2; C-terminal amide); test: SPR, biotinylated L-IZN45 on NeutrAvidin chip
T3 chain: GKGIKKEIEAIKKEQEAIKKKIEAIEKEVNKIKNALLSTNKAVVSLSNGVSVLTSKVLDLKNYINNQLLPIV

[3] = biological target: T1, BPEG2-GKG-RSVB-IZN45 Full Mut; test: SPR
[4] = biological target: T1, BPEG2-GKG-RSVB-IZN45 Full Mut; test: phage ELISA

Sequence of RSV F protein (RSV-A) (respiratory syncytial virus, RSV-A) (P03420 26-574): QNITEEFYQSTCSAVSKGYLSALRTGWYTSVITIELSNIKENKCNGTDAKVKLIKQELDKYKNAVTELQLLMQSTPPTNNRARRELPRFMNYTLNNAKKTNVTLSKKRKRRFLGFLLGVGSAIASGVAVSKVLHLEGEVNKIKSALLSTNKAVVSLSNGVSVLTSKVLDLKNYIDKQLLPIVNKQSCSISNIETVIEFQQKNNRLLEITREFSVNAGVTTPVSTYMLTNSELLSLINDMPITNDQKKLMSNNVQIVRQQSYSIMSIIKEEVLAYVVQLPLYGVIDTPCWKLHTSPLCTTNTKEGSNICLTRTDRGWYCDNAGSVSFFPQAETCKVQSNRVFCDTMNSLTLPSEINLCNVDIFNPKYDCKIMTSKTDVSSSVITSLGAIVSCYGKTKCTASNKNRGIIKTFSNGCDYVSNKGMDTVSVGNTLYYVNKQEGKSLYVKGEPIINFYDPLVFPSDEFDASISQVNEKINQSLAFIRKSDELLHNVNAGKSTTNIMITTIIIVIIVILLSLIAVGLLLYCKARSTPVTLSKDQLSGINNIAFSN

## KKGAAAARWFELPEPEWWG (not fully specified; all D-amino acids; C-terminal PEG6 joined to the hub) [KKGAAAA-RSVP7-G(PEG6)-Tricasso]
[1]
  IC50, syncytia reduction assay: 13900 nM and 7400 nM

B1: Ac-KG-RSVP20 (peptide)
peptide: Ac-[dK]GG[dA][dC][dR][dN][dE][dP][dH][dW][dL][dL][dD][dW][dC][dA][dA]-NH2
modifications: disulfide 5-16
SMILES: CC(=O)N[C@H](CCCCN)C(=O)NCC(=O)NCC(=O)N[C@H](C)C(=O)N[C@@H]1CSSC[C@H](C(=O)N[C@H](C)C(=O)N[C@H](C)C(N)=O)NC(=O)[C@@H](Cc2c[nH]c3ccccc23)NC(=O)[C@@H](CC(=O)O)NC(=O)[C@@H](CC(C)C)NC(=O)[C@@H](CC(C)C)NC(=O)[C@@H](Cc2c[nH]c3ccccc23)NC(=O)[C@@H](Cc2c[nH]cn2)NC(=O)[C@H]2CCCN2C(=O)[C@@H](CCC(=O)O)NC(=O)[C@@H](CC(N)=O)NC(=O)[C@@H](CCCNC(=N)N)NC1=O
[1]
  IC50, syncytia reduction assay: 673000 nM

## Ac-[dK][PEG6′]G[dA][dC][dR][dN][dE][dP][dH][dW][dL][dL][dD][dW][dC][dA][dA]-NH2 (disulfide 5-16; also: cholesterol (Chol) conjugate, site not given here, trimer) [Chol-Ac-K(PEG6)-RSVP20-trimer]
[1]
  IC50, syncytia reduction assay: 7900 nM

## Ac-[dK][PEG6′][dD][dD]G[dS][dM][dC][dV][dN][dR][dP][dE][dW][dL][dL][dD][dW][dC]G[dT]-NH2 (disulfide 8-19; also: trimer, linkage not given here) [Ac-K(PEG6)DDG-RSVP24-trimer]
[1]
  IC50, syncytia reduction assay: 5500 nM

## Ac-[dS][dM][dC][dV][dN][dR][dP][dE][dW][dL][dL][dD][dW][dC]G[dT]G[dD][dD][PEG6′][dK]-NH2 (disulfide 3-14; also: trimer, linkage not given here) [Ac-RSVP24-GDD(PEG6)K-trimer]
[1]
  IC50, syncytia reduction assay: 4600 nM

## Ac-[dS][dM][dC][dV][dN][dR][dP][dE][dW][dL][dL][dD][dW][dC]G[dT]G[dD][dD][PEG6′][dK]-NH2 (disulfide 3-14; also: cholesterol conjugate, trimer) [Chol-Ac-RSVP24-GDD(PEG6)K-trimer]
[1]
  IC50, syncytia reduction assay: 97 nM

## Ac-[dK][PEG6′][dD][dD]G[dH][dA][dC][dV][dN][dR][dP][dE][dW][dL][dL][dD][dW][dC]G[dR]-NH2 (disulfide 8-19; also: cholesterol (Chol) conjugate, site not given here, trimer) [Chol-Ac-K(PEG6)DDG-RSVP26-trimer]
[1]
  IC50, syncytia reduction assay: 3200 nM

## Ac-[dK][PEG6′]G[dH][dA][dC][dV][dN][dR][dP][dE][dW][dL][dL][dD][dW][dC]G[dR]G[dR][dR]-NH2 (disulfide 6-17; also: trimer, linkage not given here) [Ac-K(PEG6)G-RSVP26-GRR-trimer]
[1]
  IC50, syncytia reduction assay: 5500 nM

## Ac-[dK][PEG6′]G[dH][dA][dC][dV][dN][dR][dP][dE][dW][dL][dL][dD][dW][dC]G[dR]G[dR][dR]-NH2 (disulfide 6-17; also: cholesterol conjugate, trimer) [Chol-Ac-K(PEG6)G-RSVP26-GRR-trimer]
[1]
  IC50, syncytia reduction assay: 490 nM

## Ac-[dK][PEG6′][dD][dD]G[dH][dE][dC][dV][dN][dR][dP][dE][dW][dL][dL][dD][dW][dC][dE][dH]-NH2 (disulfide 8-19; also: cholesterol conjugate, trimer) [Chol-Ac-K(PEG6)DDG-RSVP27-trimer]
[1]
  IC50, syncytia reduction assay: 140 nM and 90 nM and 88 nM

## Ac-[dK][PEG6′][dD][dD]G[dH][dA][dC][dV][dN][dR][dP][dE][dW][dL][dL][dD][dW][dC][dD][dH]-NH2 (disulfide 8-19; also: cholesterol conjugate, trimer) [Chol-Ac-K(PEG6)DDG-RSVP28-trimer]
[1]
  IC50, syncytia reduction assay: 240 nM

## Ac-[dK][PEG6′][dD][dD]G[dS][dA][dC][dV][dN][dR][dP][dE][dW][dL][dL][dD][dW][dC]G[dT]-NH2 (disulfide 8-19; also: cholesterol conjugate, trimer) [Chol-Ac-K(PEG6)DDG-RSVP29-trimer]
[1]
  IC50, syncytia reduction assay: 120 nM and 100 nM

## Ac-[dK][PEG6′][dD][dD]G[dA][dE][dC][dV][dN][dR][dP][dE][dW][dL][dL][dD][dW][dC]G[dT]-NH2 (disulfide 8-19; also: cholesterol conjugate, trimer) [Chol-Ac-K(PEG6)DDG-RSVP31-trimer]
[1]
  IC50, syncytia reduction assay: 65 nM and 54 nM and 24 nM

B2: Chol-Ac-K(PEG4)DDG-RSVP32-trimer (peptide)
peptide: Ac-[dK][PEG4′][dD][dD]GG[dE][dC][dV][dN][dR][dP][dE][dW][dL][dL][dD][dW][dC]G[dT]-NH2
modifications: disulfide 8-19; also: Chol, attachment not given here, trimer, linkage not given here
[1]
  IC50, syncytia reduction assay: 28 nM and 16 nM and 11 nM

## Ac-[dK][PEG8′]GG[dE][dC][dV][dN][dR][dP][dE][dW][dL][dL][dD][dW][dC]G[dT]G[dD][dD]-NH2 (disulfide 6-17; also: cholesterol conjugate, trimer) [Chol-Ac-K(PEG8)G-RSVP32-GDD-trimer]
[1]
  IC50, syncytia reduction assay: 24 nM and 8 nM

## Ac-G[dE][dC][dV][dN][dR][dP][dE][dW][dL][dL][dD][dW][dC]G[dT]G[dD][dD][PEG4′][dK]-NH2 (disulfide 3-14; also: cholesterol conjugate, trimer) [Chol-Ac-RSVP32-GDD(PEG4)K-trimer]
[1]
  IC50, syncytia reduction assay: 37 nM and 52 nM and 95 nM

## GECVNQPEWLLDWCGT (D-peptide; N-terminal acetyl; C-terminal amide) [RSVP32 with Gln at position 6]
[1]
  potency: 53 nM
  potency, fold decrease compared to RSVP32: 2 fold

## GEVCRPEWLLDWCGT (D-peptide; N-terminal acetyl; C-terminal amide) [RSVP32 with shortened disulfide]
[1]
  potency: 360 nM
  potency, fold decrease compared to RSVP32: 14.4 fold

## KKGRWFELPEPEWWG (not fully specified; all D-amino acids; C-terminal PEG6 joined to the hub) [KKG-RSVP7-G(PEG6)-Tricasso]
RSV F protein (RSV-A)
  IC50, syncytia reduction assay: 4800 nM and 4500 nM

B3: Ac-K(PEG6)-RSVP20-trimer (peptide)
peptide: Ac-KG[dA][dC][dR][dN][dE][dP][dH][dW][dL][dL][dD][dW][dC][dA][dA]-NH2
modifications: disulfide 4-15 (inferred); not fully specified (residue 1); printed as Ac-K(PEG6)-RSVP20-trimer; also: PEG6 after N-terminal K (side chain or backbone unclear), trimer
RSV F protein (RSV-A)
  IC50, syncytia reduction assay: 55000 nM and 19000 nM

B4: Ac-K(PEG6)-RSVP21-trimer (peptide)
peptide: Ac-KG[dA][dC][dT][dN][dR][dA][dE][dW][dL][dI][dD][dW][dC][dA][dA]-NH2
modifications: disulfide 4-15 (inferred); not fully specified (residue 1); printed as Ac-K(PEG6)-RSVP21-trimer; also: PEG6 after N-terminal K (side chain or backbone unclear), trimer
RSV F protein (RSV-A)
  IC50, syncytia reduction assay: 65000 nM

## [dK]G[dR][dW][dF][dE][dL][dP][dE][dP][dE][dW][dW]G (not fully specified (C-terminus); printed as KG-RSVP7-G(PEG6)-Tricasso) [KG-RSVP7-G(PEG6)-Tricasso]
RSV F protein (RSV-A)
  IC50, syncytia reduction assay: 18400 nM

## SLKYWWMEELPLPKWW [X16-18 phage clone]
[2]
  binding result: no binding
IZN45_WT_Bot
  binding result: no binding

## SKVILPEPFWWP [X12-47 phage clone]
[2]
  binding result: no binding

## GACKIHDLFHWHDCAA (disulfide (positions not given here); not fully specified (bridges), also called CXC10C-119) [CX10C-119 phage clone]
[2]
  binding result: no binding

## FDASISQVNEKINQSLAFIRKSDELLHNVNAGKST (also called RSV C-peptide T118) [T118]
BPEG2-GKG-RSVB-IZN45
  Kd: ~1 nM
[3]
  binding result: no binding

B5: T108 (peptide)
peptide: YDPLVFPSDEFDASISQVNEKINQSLAFIRKSDEL
notes: domain: 35-residue RSV C-peptide T108; also called RSV C-peptide T108
[3]
  binding result: no binding

## YDPLVFPSDEFDASISQVNEKINQSLAFIRKSDEL (domain: 35-residue RSV C-peptide T108) [control phage displaying T108]
[4]
  binding result: no binding
